Test results as given in the nanobody polyreactivity screen of Harvey et al. (2022).

Assay: yeast display, Sf9 membrane polyspecificity reagent, FACS + sequencing; frameworks hold sequencing errors
Outline: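 Nanobodies came from a synthetic yeast display library in Saccharomyces cerevisiae BJ5465, induced with galactose for 36–48 hours and stained for 1 hour at 4 °C with 10% biotinylated, detergent-solubilized Sf9 membrane reagent. Cells were enriched on streptavidin microbeads and then FACS-sorted, with low and high (top ~1%) gates set on anti-HA fluorescence for expression and streptavidin fluorescence for reagent binding. Each polyreactivity label reflects the gate a clone came from. Genes were amplified by colony PCR, sequenced by MiSeq 2 × 250 and filtered by CDR length.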

Row | Sequence | polyreactivity (PSR sort gate)
1 | QVQLVESGGVLVQAGGSLRISCAASGFIFAYNAMGWYRQAPGKETELVAAISWNGGNTYYADSVKGRFTISRDNAKNTVYLQMNSLKPEDTAVYYCAAIPKPFRSYGYWGKGTQVTVSS | high polyreactivity
2 | QVQLVESGGVLVQAGGSLRLSCAASGFIFKKYAMGWYRQEPGKEMELVAAITIGGSTYYADSVKGRFTISRDNAKNTVYLQMNSLKPEDTAVYYCAAVQGKVRGGYYWGQGTQVTVSS | high polyreactivity
3 | QVQLVESGGVLVQAGGSLRLSCAASGFIFSEYAMGWYRHAPGKERELVAAISRSGGRTYYADSVKGRFTISRDNAKNTVYLQMNSLKPEDTAVYYCAAVWWWYYNHYYYWGQGTLVTVSS | high polyreactivity
4 | QVQLVESGGVLVQAGGSLRLSCAASGFINLRYAMGWYRQAPGKERELVAAITSGGNTYYADSVKGRFTISRDNAKNTVSLQRNSLKQEDTAVYYCAAERFVITYPISRYYYWGQGTQVTVSS | low polyreactivity
5 | QVQLVESGGVLVQAGGSLRLSCAASGFTFDYYAMGWYIPAPGKERELVASISYNGGITNYADSVQGRFTISRDNAKNTVFLHMHSLKPEDTAVYYWNAVPLYYWRFDYWGQGTQVTVSS | low polyreactivity
6 | QVQLVESGGVLVQAGGSLRLSCAASGFTFSHNAMGWYRLARGKERELVAAISKGGSSTYYADSVKGRFTISRDNAKNTVYLQMNSLKPEDTAVYYCARPSPHKGYDYWGQGTQVTESS | high polyreactivity
7 | QVQLVESGGVLVQAGGSLRLSCAASGFTFSLYAMGWYRQAPGKERELVASISRSGGSTYYADSVKGRFTISRDNAKNTVYLQMNSLKPEDTAVYSCAARWRPYKYDSWGQGTQVTVSS | high polyreactivity
8 | QVQLVESGGVLVQAGGSLRLSCAASGFTFWSYAMGWYRQAPGKERELVAAISSGDNTYYADSVKGRFTISRDNAKNTVYLQMNSLKPEDTAVYYCNAFYYYEYDYWGQGTQVTVSS | low polyreactivity
9 | QVQLVESGGVLVQAGGSLRLSCAASGIIFFGYAMGWYRQAPGKERELFAAISYSTGGTSTYADSVKGRFTISRDNAKNTVYLQKNSLKPEDTAVYYCAVRRQYRRAYSFSQSRYDYWGQGTQVTVSS | high polyreactivity
10 | QVQLVESGGVLVQAGGSLRLSCAASGIIFRSNVMGWYRQAPGKERELVAAISTGGGRTYYADSVKGRFTISRDNAKNTVYLQMNILKPEDTAVYYCAAETTPYQPDGFDEYYYWGQGTQVTVSS | high polyreactivity
11 | QVQLVESGGVLVQAGGSLRLSCAASGRIFGSYTMGWYRQAPGKERELVAGISRRGGSTYYADSVKGRFTISRDNAKNTVYLQMNSLNPEDTAVYYCAAVSSVFSVRYDYWGQGTQVTVSS | high polyreactivity
12 | QVQLVESGGVLVQAGGSLRLSCAASGRIFPTYAMGWYRQAPGKERELVAAISQRGGSTYYADSVKGRFTISRDNAKNTVYLQMNSLKPEDTAVYYCAASYYRQSGEYDYWGQGTQVTVSS | low polyreactivity
13 | QVQLVESGGVLVQAGGSLRLSCAASGRIFWLNAMGWYRQAPGKEREFVASITYGSDSTYYADSVKGRFTISRDNAKNTVYLQMNSRTPEDTAVYYCNREGWHYGPYGYWGQGTQVTVSS | low polyreactivity
14 | QVQLVESGGVLVQAGGSLRLSCAASGRLFSRYTMGWYRQAPGKERELVAAIRNTGSTNYADSVKGRFTISRDNAKNTVYLQMNSLKPEDTAVYYCNARTAYVAYHYYYPQRMDYWGQGTQVTVSS | high polyreactivity
15 | QVQLVESGGVLVQAGGSLRLSCAASGRSFDENSMGWYRQAPGKERELVAAITGGDSTNYADSVKGRFTISRDNAKNTVYLQMNSLKPEDTAVYYCAKDQERVTKGRFYLLEYYWGQGTQVTVSS | low polyreactivity
16 | QVQLVESGGVLVQAGGSLRLSCAASGRTSKFYAMGWYRPAPGKERELVARITYSGGSTTYADSVKGRFTISRDNAKNTVYLQMNSLKPDDTAVYYFAITSQWLRRYYYWGQGTQVTVSS | high polyreactivity
17 | QVQLVESGGVLVQAGGSLRLSCAASGSAFRENDMGWYRQAPGKERELVAAITFSGGSTYADSVKGRFTISRDIAKNTVYLQMNSLKPEDSAVYYCSADTLPAEYEYDYWGQGTQVTVSS | low polyreactivity
18 | QVQLVESGGVLVQAGGSLRLSCAASGSIFKLNAMGWYRQAPGKERELVAVINKSGGRTFYADSVKGRFTISRDNAKNTVYLQMNRLKPEDTAVYYCNAVSNLAVNLDYWGQGTQVTVSS | high polyreactivity
19 | QVQLVESGGVLVQAGGSLRLSCAASGSIFYVNAMGWYRQAPGKERELVATITTDGSTNYADSVKGRFTISRDNAKNTVYLPMNSLKPEDTAVYYCAAERWLATPTVPWYLYNYWGQGTQVTVSS | low polyreactivity
20 | QVQLVESGGVLVQAGGSLRLSCAASGSLFSRYAMGWYRQAPGKERELVAAISSSGGSTYYADSVKGRFTISRDNAKNTVYLQMISLKREDTAVYDCGAELRYYLVWLYYWGQGTQVSVSS | low polyreactivity
21 | QVQLVESGGVLVQAGGSLRLSCAASGSTFFLYMGWYRQAPGKERELVAAITVSGRSTYYADSVKGRFTISRDNAKNTVYLQMNSLKPEDTAVYYCNADWVLRYDYWGQGTQVTVSS | low polyreactivity

Row | Sequence | polyreactivity (PSR sort gate)
22 | QVQLVESGGVLVQAGGSLRLSCAASGSTFPWYAMGWYRPAPGKERELVAAITARGTRTYYADSVKGRFTISRDNAKNTVYLQMNILKPEDTAVYYCNAGISSRYDYWGQGTQVTVSS | high polyreactivity
23 | QVQLVESGGVLVQAGGSLRLSCAASGSTFWTNTMGWYRQAPGKERELVAAISRRGGTTYYADSVKGRFTISRDNAKNTVYLQMNSLKPEDTAVYYCATSLIGKTVPLRVYYWGQGTQVTVSS | high polyreactivity
24 | QVQLVESGGVLVQAGGSLRLSCAASGSTIRLYAMGWYRQAPGKERELVAAIRSGGNTNYADSVKGRFTISRDNAKNSVYLQMKSLKREDTAVYYCNGFCAQLPVPNYDYWGQGPQVTVSS | high polyreactivity
25 | QVQLVESGGVLVQAGGSLRLSCAATGSIINRYAMGWYRQAPRKERELVAAISSTGSTYYADSVKGRFTISRDNAKNTVYLQLNSLKPEDTAVYYCNADATLDWLRVDSYVYWGQGTQVTVSS | low polyreactivity
26 | QVQLVESGGVLVQAGGSLRLSCADSGRTFWYYAMGWYRQAPGKEREWVASISASGGSTFYADSVKGRFTISRDNAKNTVSLQMNSLKPEDTAVYYRAAKNAVWRRYEYWGQGTQVTVSS | high polyreactivity
27 | QVQLVESGGVLVQAGGSLRLSCASSLTISYRYAMGWYRTAPGKERELVAAITSGGGTTYYADSVKGRFTISRDNAKNTVYLQMNSMKPEDTAVYYCAKPRARQAFEYWGQGTQVTVSS | high polyreactivity
28 | QVQLVESGGVLVQALGSLRLSCAASVITIDNYVMGWYRQAPGKERELVAAISIGGGTYYADSVKGRFTISRDNAKNTVYLQMNSRKPEDSAVYYCKARSDVSYWWGGYWGQGTQVTVSS | low polyreactivity
29 | QVQLVESGGVLVQARGILRLICAASGSTFSFNDMGWYRQAPGKERELVAAISRGDNTYYADSVKGRFTISRDNAKNTVYLQMNSLKPDDTSVYYCAADYTYGPPYGYNYWGQGTQVTVSS | low polyreactivity
30 | QVQLVESGGVLVQAVGSLRLSCAASGSIFRLYALGWYREARGKEREFVATITWSGGSTSYADSVKGRFTISRDNAKNTVYLQMNSLKPEDTAVYYCAAKRRYWLYDWGQGTQVTVSS | high polyreactivity
31 | QVQLVESGGVLVQGRGSLRLSCDASGFTYYTNDMGWYRQAPWKERELVAAINSGGSTKYADSVKGRFPISRDNAKNTVYEQMNSLKPEETAVYYCNRDDNRKHSFGSVGYDYWGQGHQVTVSS | low polyreactivity
32 | QVQLVESGGWLVQAGGSLRLSCAASGFIFYRYAMGWYRPAPGKERELDAAISGSGGRTYYADSVKGRFTISRDNAKNTVYLQMNSLKPEDTAVYYCAADKQAYVTDDYWGQGTQVTVSS | high polyreactivity
33 | QVQLVESGGWLVQAGGSLRLSCAASGSIFTINTMGWYRQARGKERELVAAITGSGGITYYADSVKGRFTISRDNAKNTVYLQMNSLNPVDTAVYYCAAVVYGTVRRVGWYYVGEGYDYWGQGTQVTVSS | low polyreactivity
34 | QVQLVESGLGLVKAGGSLRLSCAASGNTFDHYVMVWSRQAPGKEPELVASITSGGSTNYADSVKGRFTISRDNAKNTVYLQMNSLKPEDTAVYYCAVSLSYWYEAFTTRIDYYYWGQGTQVTLSS | high polyreactivity
35 | QVQLVESGLGLVQAGRSLRLSCASSGRIFNYYAMVWYRQAPGKERELVAGINWSGTRTYYADSVKGRFTISRDNAKNTVYLQMNSLKPEDTAVYYCNAGRTWRAFTGDEYWGQGTQVSVSS | high polyreactivity
36 | QVQLVESGRGIVQAGGSLRLSCAASGRIFRVNAMGWYRQAPGKERELVATISYSGGSTYADSVKGRFTISRDNAKNTVYLQMNSLKPEDTAVYYCAARPYYRYYRYPYGYWGQGTQVTVSS | high polyreactivity
37 | QVQLVESGRGLFQAGGSLRLSCAASGRIFRYYAMGWSRQATGKERELVAAISGSGGSTYYAASVKGRFTISGDNAKNTVYLLMNSLKPEDNAVYYCNALYRIASGEGDLWGQGTQVTVSS | low polyreactivity
38 | QVQLVESGRGLFQAGRSLRISCAASGSIFSYNTMGWYREAPGKERELVASISSGGRTYYADSVKGRFTISRDNAKNTVYLQMNSLKPVDTAVYDCARVPYAYLPYKPFQQYSYDYWGQGTQVTVSS | high polyreactivity
39 | QVQLVESGRGLVHAGGSLLLSCAASGSTFGWYAMGRFIQARGKEREFVAAISWSGTSTYYADSVKGRFTISRDNAKNTFDLQMNSLKPEDTAVYYCASRWVVFTEREDYWGQGTQVTVSS | low polyreactivity
40 | QVQLVESGRGLVPAGGSLRLSCAASGSTFFKNAMGWYRQAPGNERELVAAITWSGDRTYADSVKGRFTISRDNAKNTVYLQMNSLKPEDTAVYYCNVDITGYEDDEWGQGTQVTVSS | low polyreactivity
41 | QVQLVESGRGLVQAGCSLRLSCAASGRIFPWNAMGWYRQAPGKETEFVAAITSGGGTTYYADSVKGRFTISRDTAKITVYLQMNSLKQEDTAVYYCAAPVYTVRGWRGLYGYWGQGSQVTVSS | high polyreactivity
